Assays:
[1] = target: human cell-derived natural IL-18 (human) (UniProt Q14116); assay: cell-based or functional assay
[2] = target: chymase cleavage-type IL-18 (UniProt Q14116); assay: cell-based or functional assay
[3] = target: T1, human IL-18 (MBL Medical & Biological Laboratories, Co., Ltd.) (human, UniProt Q14116 37-193, biotinylated (Biotin-PEAC5-maleimide or Biotin-AC5 Sulfo-OSu) in the streptavidin plate ELISAs and the panning; not labelled in the receptor binding and KG-1 assays); assay: cell-based or functional assay
T1 sequence (looked up): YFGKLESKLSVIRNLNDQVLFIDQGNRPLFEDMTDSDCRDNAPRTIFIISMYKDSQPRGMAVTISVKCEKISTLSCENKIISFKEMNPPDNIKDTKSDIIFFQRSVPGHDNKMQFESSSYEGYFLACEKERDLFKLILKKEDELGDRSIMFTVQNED

[4] = target: T1, human IL-18 (MBL Medical & Biological …); assay: ELISA, biotinylated human IL-18 on streptavidin plate, HRP detection antibody, O.D. 450nm/650nm
Procedure: The binding activity of the obtained scFv phages, scFv, and IgG prepared by a standard method (conventional method) was evaluated by ELISA. The biotinylated human IL-18 or the biotinylated mouse IL-18 was diluted to 1 μg/mL with PBS (Sigma-Aldrich Corp.), added at 100 μL/well to Streptavidin plates (Nunc), and incubated at room temperature for 2 hours to immobilize the IL-18. After the immobilization, the plates were washed with PBST, and each obtained scFv phage, scFv, or IgG was added at 100 μL/well to the plates and incubated at 37° C. After 1 hour, the plates were washed with PBST, and a detection antibody anti-M13/HRP (GE Healthcare Japan Corp.), anti-His tag/HRP (Bethyl Laboratories, Inc.), anti-V5 tag/HRP (Bethyl Laboratories, Inc.), anti-mouse IgG/HRP (Invitrogen Corp.), or anti-hFc/HRP (Cosmo Bio Co., Ltd., The binding site) was added at 100 μL/well to the plates and incubated at 37° C. After 1 hour, the plates were washed with PBST, and TMB (Sigma-Aldrich Corp.) was added at 100 μL/well to the plates to develop color. After 30 minutes, the reaction was terminated with 2 N sulfuric acid, and the color values (O.D. 450 nm/650 nm) were measured using a microplate reader (Molecular Devices, Inc.).

[5] = target: T2, human IL-33 (MBL Medical & Biological Laboratories, Co., Ltd.) (human, UniProt O95760 112-270, limits assumed, biotinylated (Biotin-PEAC5-maleimide or Biotin-AC5 Sulfo-OSu)); assay: ELISA on biotinylated cytokine on streptavidin plates
T2 construct: also called biotinylated human IL-33
T2 sequence (looked up): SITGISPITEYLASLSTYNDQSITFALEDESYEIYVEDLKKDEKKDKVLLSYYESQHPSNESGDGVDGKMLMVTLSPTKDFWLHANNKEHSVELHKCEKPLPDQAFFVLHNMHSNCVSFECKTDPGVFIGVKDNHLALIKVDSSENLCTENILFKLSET

[6] = target: T3, mouse IL-18 (MBL Medical & Biological Laboratories, Co., Ltd.) (mouse, UniProt P70380 36-192, biotinylated (Biotin-PEAC5-maleimide or Biotin-AC5 Sulfo-OSu)); assay: as above
T3 construct: also called biotinylated mouse IL-18
T3 sequence (looked up): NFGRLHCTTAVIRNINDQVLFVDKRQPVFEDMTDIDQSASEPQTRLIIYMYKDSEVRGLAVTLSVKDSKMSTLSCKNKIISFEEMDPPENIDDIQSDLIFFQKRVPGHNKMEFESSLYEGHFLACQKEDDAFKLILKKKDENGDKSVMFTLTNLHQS

[7] = target: T4, rat IL-18 (Acris Antibodies GmbH) (rat, UniProt P97636 37-194, limits assumed, biotinylated (Biotin-PEAC5-maleimide or Biotin-AC5 Sulfo-OSu)); assay: as above
T4 construct: also called biotinylated rat IL-18
T4 sequence (looked up): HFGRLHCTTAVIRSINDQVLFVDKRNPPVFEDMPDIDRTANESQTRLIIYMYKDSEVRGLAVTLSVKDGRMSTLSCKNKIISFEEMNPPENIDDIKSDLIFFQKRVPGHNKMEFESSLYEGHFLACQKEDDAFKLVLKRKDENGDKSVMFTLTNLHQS

[8] = target: T5, human IL-1β (Funakoshi Corp.) (human, UniProt P01584 117-269, biotinylated (Biotin-PEAC5-maleimide or Biotin-AC5 Sulfo-OSu)); assay: as above
T5 construct: also called biotinylated human IL-1β

[9] = target: T1, human IL-18 (MBL Medical & Biological …); assay: ELISA: biotinylated human IL-18 on streptavidin plate, anti-mouse IgG/HRP
Procedure: The biotinylated human IL-18 was diluted to 1 μg/mL with PBS (Sigma-Aldrich Corp.), added at 100 μL/well to Streptavidin plates (Nunc), and incubated at room temperature for 1 hour to immobilize the human IL-18. The plates were washed with PB ST, and human IL-18BPa-hFc (R&D Systems, Inc.) diluted to 10 μg/mL with 1% BSA-PBS was added at 100 μL/well to the plates and incubated at 37° C. for 1 hour to form a complex of IL-18 and IL-18BP. The plates were washed with PBST, and 4A6D scFv-mFc was added at 100 μL/well to the plates and incubated at 37° C. After 1 hour, the plates were washed with PBST, and a detection antibody anti-mouse IgG/HRP (Invitrogen Corp.) was added at 100 μL/well to the plates and incubated at 37° C. After 1 hour, the plates were washed with PBST, and TMB (Sigma-Aldrich Corp.) was added at 100 μL/well to the plates to develop color. After 30 minutes, the reaction was terminated with 1 M sulfuric acid, and the color values (O.D. 450 nm/650 nm) were measured using a microplate reader (Molecular Devices, Inc.).

[10] = target: T1, human IL-18 (MBL Medical & Biological …); assay: panning of an scFv phage library on biotinylated human IL-18 on streptavidin magnetic beads

Negative control antibody
Amount of IFN-γ produced [1]: 134 pg/mL | Amount of IFN-γ produced [2]: 109 pg/mL

B1: IgG molecule-type 4A6S (antibody, V domains shown)
VH: EVQLVESGGGLVQPGGSMRLSCTASGFTFSEYAMSWVRQAPGKGLEWVSGISTGGGGTYYADSVEGRFTISRDNSKNTLYLQMNSLRAEDTAVYYCAKPWLSGSRSGDFWGQGTLVTVSS
VL: QSALTQPASVSGSPGQSITISCTGTSSDVGGYNYVSWYQQHPGKAPKLLIYEVSHRPSGVSDRFSGSKSGNTASLTISGLQAEDEADYYCSSFTSSSSLYVFGTGTKLTVL
notes: IgG prepared by a standard method; also called human anti-human IL-18 antibody 4A6S
Neutralizing ability (IC50, nM) [3]: 0.013 nM | EC50 (read off the curve) [4]: ~0.02 mg/L | binding result [5]: no binding | binding result [6]: no binding | binding result [7]: no binding | binding result [8]: no binding

B2: 4A6D scFv-mFc (Fc fusion)
scFv: EVQLVESGGGLVQPGGSMRLSCTASGFTFDEYAMSWVRQAPGKGLEWVSGISTGGGGTYYADSVEGRFTISRDNSKNTLYLQMNSLRAEDTAVYYCAKPWLSGSRSGDFWGQGTLVTVSSASTGGGGSGGGGSGGGGSQSALTQPASVSGSPGQSITISCTGTSSDVGGYNYVSWYQQHPGKAPKLLIYEVSHRPSGVSDRFSGSKSGNTASLTISGLQAEDEADYYCSSFTSSSSLYVFGTGTKLTVL
notes: not shown: mouse Fc (mFc) and any junction to it
EC50 (read off the curve) [9]: ~0.008 mg/L

B3: 4A6D scFv phage (scFv)
scFv: EVQLVESGGGLVQPGGSMRLSCTASGFTFDEYAMSWVRQAPGKGLEWVSGISTGGGGTYYADSVEGRFTISRDNSKNTLYLQMNSLRAEDTAVYYCAKPWLSGSRSGDFWGQGTLVTVSSASTGGGGSGGGGSGGGGSQSALTQPASVSGSPGQSITISCTGTSSDVGGYNYVSWYQQHPGKAPKLLIYEVSHRPSGVSDRFSGSKSGNTASLTISGLQAEDEADYYCSSFTSSSSLYVFGTGTKLTVL
modifications: displayed on phage
notes: the phage coat fusion is not described; not shown: phage coat protein fusion (display partner) and any tags; not described
binding result [10]: binds

B4: 4A6S scFv phage (scFv)
scFv: EVQLVESGGGLVQPGGSMRLSCTASGFTFSEYAMSWVRQAPGKGLEWVSGISTGGGGTYYADSVEGRFTISRDNSKNTLYLQMNSLRAEDTAVYYCAKPWLSGSRSGDFWGQGTLVTVSSASTGGGGSGGGGSGGGGSQSALTQPASVSGSPGQSITISCTGTSSDVGGYNYVSWYQQHPGKAPKLLIYEVSHRPSGVSDRFSGSKSGNTASLTISGLQAEDEADYYCSSFTSSSSLYVFGTGTKLTVL
modifications: displayed on phage
notes: as for B3
binding result [10]: binds
